Assay results reported in the DeepSol protein solubility set.

Assay: soluble on expression in E. coli; label from the status in PepcDB or PDB records

Row | Sequence | soluble on expression in E. coli
1 | MSLYTASQLLDKINSHISDIRFTRTPAGLYDPIKYVLSMGGKRIRPVLMLMAYNLYKEDVSSIYDPATAIEVYHNYTLLHDDLMDRADMRRGKTTVHKVWNDNTAILSGDAMLVLAYQYMAASSSEHLKEVMDLFSLTALEICEGQQMDMNFESREDVKEEEYLEMIRLKTAVLLAASLKIGAILGGASPEDAENLYDFGMQIGVAFQLQDDLLDVYGDPAVFGKNIGGDILCNKKTYMLIKALERADRDQLEGLNHWLSATSFCPEEKISAVTELYTQIGIKAVCENKMREYYTRAMTSLGAVSVIEDKKSELKKLMKHLMYREGHHHHHH | soluble
2 | MSLSEYRRKRSFDKTREPEPGKTLPPGQRAIFVVQLHHASRRHYDFRLQVGDALKSWAVPKGPSYDPKVKRMAVEVEDHPVDYASFEGEIPRGEYGGGHVAQFDHGVWATAGDPEAQLAKGHLRFELFGNKLKGGWHLVRSGKPARQPQWLLFKEDDAYAGLEHHHHHH | soluble
3 | MDGLFEFCQLSTGGSVAGAVKLNRQQTDMAVNWAGGLHHAKKYEASGFCYVNDIVLAILELLKYHQRVLYIDIDIHHGDGVEEAFYTTDRVMTVSFHKYGEYFPGTGDLRDIGAGKGKYYAVNFPMCDGIDDESYGQIFKPIISKVMEMYQPSAVVLQCGADSLSGDRLGCFNLTVKGHAKCVEVVKTFNLPLLMLGGGGYTIRNVARCWTYETAVALDCEIPNELPYNDYFEYFGPDFKLHISPSNMTNQNTPEYMEKIKQRLFENLRMLPHAPGVQMQAIPEDAVHEDSGDEDGEDPDKRISIRASDKRIACDEEFSDSEDEGEGGRRNVADHKKGAKKARIEEDKKETEDKKTDVKEEDKSKDNLEHHHHHH | soluble
4 | ADQPSPTWGIDRIDQRNLPLDNNYHTDYDGSGVTAFVIDTGVLNTHNEFGGRASSGYDFIDNDYDATDCNGHGTHVAGTIGGSTYGVAKNVNVVGVRVLNCSGSGSNSGVIAGINWVKNNASGPAVANMSLGGGASQATDDAVNAAVAAGITFVVAAGNDNSNACNYSPARAADAITVGSTTSNDSRSSFSNYGTCLDIYAPGSSITSSWYTSNSATNTISGTSMASPHVAGVAALYLDENPNLSPAQVTNLLKTRATADKVTDAKTGSPNKLLFSLA | soluble
5 | MSLKVTMEFIANQLGITKNTVSLALRNMPGVSEKTRKEILRTAEKYGYIYKKSNSKNSKSNSRTGSICLMLSNDTKNSVGFFSFIQYGVESEGKRNGLNTILYCFDDNKEFQPPVCIRDGIVSGIITLGRISRKTVSSIISLNLPLVIVDDFFDDIKASYVLTDNLSGGYTATEYLIKSGHRSIGFFGDIFASPSFFDRYMGYLKAHVQYNLPVNSSFSIIDKNMAVLLHEGVDKVVDELKKIPQLPTAMFCCNDVEAIALYKAFSVMGISVPDDISIIGFDDIESSTSVSPELTTMHINKEAMGERAVKKLIEKMNGQESMDEKIVLPVTLIERQSVKREGHHHHHH | soluble
6 | GPLGSSIMKILLIGDSGVGKSCLLVRFVEDKFNPSFITTIGIDFKIKTVDINGKKVKLQLWDTAGQERFRTITTAYYRGAMGIILVYDVTDERTFTNIKQWFKTVNEHANDEAQLLLVGNKSDMETRVVTADQGEALAKELGIPFIESSAKNDDNVNEIFFTLAKLIQEKIDSN | soluble
7 | MHSAVFSPDAPYCGAAGSNHLCEAVALCQSILARYRRTGTSFSSTELKAIQALRTEFPDTAQEPAANSAASPDQTTKDFLSILDDATDVPHNPQNDIVAFVEECCDNTKEPTVLFAAINERISAVTCSRNVRTYMVIANDNLLWDPVNGVAALIDDVTPLGKCAQARNMLTIANTLYIPLWFRSELVGCVEVPGACIPRDKATCAQLLLRCVTVAVRNSINISIRKREANKIEAMVGMATRLARDTLEESVLVQSIINTAKTLTESDRCSIFLVKADGSLEAHFEDGNVVVLPAGTGIAGHVAESGAVVNIPNAYEDDRFHRSVDKVTGYHTRTILCLPIAFEGTIVAVAQLINKLDMVTQSGQRLPRVFGRRDEELFETFSMFAAASLRNCRINETLLKEKKKSDAILDVVALLSNTDIRDVDSIVRHVLHGAKKLLNADRSSMFLLDKERNELYSKMADSANEIRFPCGQGIAGTVAESGVGENIMDAYADSRFNSAVDRQLGYRTQSILCEPITLNGEVLAVVQLVNKLGDDGSVTCFTPMDRETFQVFSLFAGISINNSHLLEFAVNAGREAMTLSLQRNSITAQRAPKSVKVIAVTPEEREAVMSIDFGGAYDFTSPGFNLFEVREKYSEPMDAAAGVVYNLLWNSGLPEKFGCREQTLLNFILQCRRRYRRVPYHNFYHVVDVCQTLHTYLYTGKASELLTELECYVLLVTALVHDLDHMGVNNSFYLKTDSPLGILSSASGNNSVLEVHHCSLAIEILSDPAADVFEGLSGQDVAYAYRALIDCVLATDMAKHADALSRFTELATSGFEKDNDTHRRLVMETLIKAGDVSNVTKPFETSRMWAMAVTEEFYRQGDMEKEKGVEVLPMFDRSKNNELARGQIGFIDFVAGKFFRDIVGNLFHGMQWCVDTVNSNRAKWQEILDGRRDSIRSSIV | not soluble
8 | CYVDTNNDGAYEGDELHMGSLTVKAYLLGKEEAAREIRRFSFCFSPEPEAEAAAGPGPSERLLSRVAVLFPALRPGGFQAHYRAERGDLVAFSSDEELTMAMSYVKDDIFRIYIKEK | soluble
9 | GPGSMTRELHRLYVTEPAPPPSLYILTGAGTKAFCAGGDVIGLTTNNPPGCGREFFYWEYQVDYKASIIPAGQVCLWDGYVLGGGAGLSIGSAYRVASEKACFAMPEVAIGMFPDVGASWFLPRLSVPGLGLYMGLTGHRLRGADLVHLGLATHFVPSAKMGELEQALVSMSDAGDVEAVLDKYTTPTTQLPPCTIAHSISSLASHFDITADLTISSILDACREHAQTDPLAKAAADLMPSFSPTAMTLALELLKRGA | not soluble
10 | MGSDKIHHHHHHVAKAAQRKLLLSELQLGMRVKLPLSWTNHPFLFNRVDINSLAQIEMIRGLGVPYVFLLSEVNTKSEQPSTDNKIIEVQEQPKTERDIKSATRKAMRLSQKRFLEGVNQCRNMFGKIVSDPEGAYRQSATLVEEMLSHLQEVEQPFLTLVGMDENEVSVTQHGVSVAVIAMMIGHALDLTPRELRDIALGSLLHDIGKLKVPENIRRKLSALTTNEANYLQMHPNFGYDMLNRSGLFPKEVLNIVLHHHEFIDGSGFPDGLTGNKIPIVTQIVALANDFDQHLSGQQASSPQVALGYLFKNRAAKHAESLISVLVKILGIYPPGTIVKLSDDSVAKVIMTTKEVAQPQVWACKPDGSEASLRFLSEEGVTVQKALKAEELTEGAIRTLQVDKGVSFYFSALQA | not soluble
11 | MSLELNFSQTLGNHCLTINETLPANGITAIFGVSGAGKTSLINAISGLTRPQKGRIVLNGRVLNDAEKGICLTPEKRRVGYVFQDARLFPHYKVRGNLRYGMSKSMVDQFDKLVALLGIEPLLDRLPGSLSGGEKQRVAIGRALLTAPELLLLDEPLASLDIPRKRELLPYLQRLTREINIPMLYVSHSLDEILHLADRVMVLENGQVKAFGALEEVWGSSVMNPWLPKEQQSSILKVTVLEHHPHYAMTALALGDQHLWVNKLGEPLQAALRIRIQASDVSLVLQPPQQTSIRNVLRAKVVNSYDDNGQVEVELEVGGKTLWARISPWARDELAIKPGLWLYAQIKSVSITEGHHHHHH | soluble
12 | MGSDKIHHHHHHMFYQLYEMNHAMMAPWRTAADAMRLAFSNPMNPVSHTYFGRAAAAGLEVFERATRRYGKPEFGLPETEIDGQPVPVRERIVWREPFCNLIHFERSLPRDRAPDPKVLIVAPMSGHYATLLRGTVEALLPHSDVYITDWIDARMVPLSEGTFDLDDYIDYVIQMLHFLGPDAHVIGVCQPAVPVLAAVALMEAAEDPLAPSTMTLMGGPIDTRINPTAVNELAKERPIEWFRDNVVMPVPWPQPGFMRMVYPGFLQLSGFMSMNLDRHLIAHKEFFAHLVKNDGDAAEKHRDFYDEYLAVMDLTAEFYLQTVQVVFMQHALPKGEMIHRGKRVDPTAIRRVALLTVEGENDDISGLGQTKAAQTICTGIPDSMRQHYMQPDVGHYGVFNGSRFRREIAPRIVAFQRRHSRHAKPVKQLIKGGKSA | not soluble
13 | MSLKKIANELGLSSTTVSRALNGYDDVAAETRERIIDAAKRLGYQPNSLARRLKMGRTDAIALAYPSRPRVLNNSTFLEMISWIGIELGKRGLDLLLIPDEPGEKYQSLIHLVETRRVDALIVAHTQPEDFRLQYLQKQNFPFLALGRSHLPKPYAWFDFDNHAGASLAVKRLLELGHQRIAFVSTDARISYVDQRLQGYVQTMSEAGLMPLAGYLQKADPTRPGGYLAASRLLALEVPPTAIITDCNMLGDGVASALDKAGLLGGEGISLIAYDGLPDDSLLDIAVTPIVQNTRTSVGKQIASMICDLLGGKDPKELQVLWQPEIGEGETEGHHHHHH | soluble
14 | MAPWKIEEVKTLKGLIKSKPVVAIVDMMDVPAPQLQEIRDKIRDKVKLRMSRNTLIIRALKEAAEELNNPKLAELANYVERGAAILVTDMNPFKLYKLLEENKSPAPVRGGQIAPCDIKVEKGSTGMPPGPFLGELKSVGIPAAIEKGKIAIKEDKVVVKKGEVVSPKLAAVLDRLGIKPIKVGLNILAVYEDGIIYTPDVLKVDEEKLLADI | soluble
15 | MKKIQRTQTRDHITQMLRYEILSGNIKAGEELAQESIAEQLGLSRMPVREALQSLEQEGFLIRLPNRHMQVAHLEADRVSHIFRVIAAMAAEMFSLIPSEVGDALLIRAQALAVAEDKSCELECHAMLISYVNNRYLEKVYQQFLDGYVSYVILHLKKDNQESAQLFAELADVIRQGRRDEIGQVMQRYFLSLAEIMRQHMKDWESAEA | not soluble
16 | LDPEEIRKRLEHTERQFRNRRKILIRGLPGDVTNQEVHDLLSDYELKYCFVDKYKGTAFVTLLNGEQAEAAINAFHQSRLRERELSVQLQPTDALLCVANLPPSLTQQQFEELVRPFGSLERCFLVYSERTGQSKGYGFAEYMKKDSAARAKSDLLGKPLGPRTLYVHWTDAGQLTPALLHSRCLCVDRLPPGFNDVDALCRALSAVHSPTFCQLACGQDGQLKGFAVLEYETAEMAEEAQQQADGLSLGGSHLRVSFCAPGPPGRSMLAALIAAQATALNRG | soluble
17 | MNNLIKAINELKKEKNAIILGHYYQKGEIQDIADYVGDSLALAQLAAKTEADIIVMCGVHFMGETAKVLCPDKKVLVPDMEAGCSLADSCPADQFAQFVKEHPGHTVISYVNTTAAVKAVTDVVVTSTNARQIVESFPKDEKIIFGPDRNLGNYINSVTNRNMLLWDGACHVHEQFSVEKIVELKTQHPEALVLAHPECKSTVLKLADVVGSTAALLKYAVNHPENTYIVATESGILHEMQKKCPQTTFIPAPPNDSTCGCNECSFMRLNTLEKLYECLKNESPEITVDPEIAEKAVRPIQRMLEISAKLGL | not soluble
18 | MKARIMYEAYFNLTTKPFELLPNPDFIFPSKSHKRALMYLDYGISERAGFILLTGDIGTGKTTLIRNMIQLKDERTIISRIFNTRVEPEQLLAMICHDFGIPAEGRGKVALLNELNDYLIEQFALGNRPVLIIDEAQNLSADLLEDIRLLSNLETSDTKLLQIVLVGQPELREVLALPQLLQLRQRISINCHISPLSREETEGYIFHRLDRAGNRNAVAFSSDALDIVYRYSRGIPRLVNIICDFILLSAFAEQTTEIPGEMVRDIIGDLDFENHYWGGAEVAASERAPEAARLAPGRSDEATELVATLRAVIDRLESLEGDFARMSRGVLDEMSEKVASLENAFRFHVDETDSHISEIRRRIEKVQNLEVGTTGECQPQDSPKGLLKRMFGALEHHHHHH | not soluble
19 | MAAKPKLYYFNGRGRMESIRWLLAAAGVEFEEEFLETREQYEKMQKDGHLLFGQVPLVEIDGMMLTQTRAILSYLAAKYNLYGKDLKERVRIDMYADGTQDLMMMIAVAPFKTPKEKEESYDLILSRAKTRYFPVFEKILKDHGEAFLVGNQLSWADIQLLEAILMVEELSAPVLSDFPLLQAFKTRISNIPTIKKFLQPGSQRKPPPDGPYVEVVRIVLKF | soluble
